In US20160219844A1 (published 2016):

Molecular target: T1, green fluorescent protein (GFP) peptide on H-2Kd (mouse)
T1 peptide: HYLSTQSAL
Experiment: multimer staining
Excerpt: FIG. 1 is a pair of graphs showing detection of GFP-specific CD8+ T cells in founder αGFP mice generated by somatic cell nuclear transfer (“SCNT”). Cells were collected from the lymph nodes of founder αGFP mice. The cells were stained for CD8 and an anti-H-2K^d-GFP₂₀₀₋₂₀₈ pentamer. Representative FACS is shown in all 14 founders. Note that these are founder mice and thus chimeric.

B1: GFP-specific T cell receptor (αGFP TCR) of SEQ ID NOs 2 and 4 (TCR, V domains shown)
Valpha: QQKVQQSPESLSVPEGGMASFNCTSSDRNFQYFWWYRQHSGEGPKALMSIFSDGDKKEGRFTAHLNKASLHVSLHIRDSQPSDSALYFCAASHDTNAYKVIFGKGTHLHVLP
Vbeta: DPKIIQKPKYLVAVTGSEKILICEQYLGHNAMYWYRQSAKKPLEFMFSYSYQKLMDNQTASSRFQPQSSKKNHLDLQITALKPDDSATYFCASSQGAGIYNSPLYFAAGTRLTVT
binding result: recognises
